These results are taken from publication PMC10752894, “Structural basis for DNA proofreading” (Nature Communications, 2023).

This data set addresses ΔG-loop Polγ holoenzyme (Homo sapiens, UniProt P54098;Q9UHN1 26-760+770-1239;26-485, internal_change). As to the kind of experiment: EMSA; 10 mM Mg2+; affinity not affected by deletion; EMSA: 40 mM Tris-HCl pH 7.9, 60 mM NaCl, 10 mM MgCl2, 5% glycerol, 20 mM 2-mercaptoethanol, 0.1 mg/ml BSA, 150 nM Cy3 scaffold, 10 min room temperature; 0.5% agarose, 0.5X TBE, 4 °C. Particulars: protein: recombinant; tags: N-terminal His (both subunits); copies: 1;2; label: 5'-Cy3 on DNA24; primer-template, 24 nt 5' template overhang.

Sequence of ΔG-loop Polγ holoenzyme (P54098 other isoform, or with tags, fused parts or gaps | mutant, chain 1 of 2): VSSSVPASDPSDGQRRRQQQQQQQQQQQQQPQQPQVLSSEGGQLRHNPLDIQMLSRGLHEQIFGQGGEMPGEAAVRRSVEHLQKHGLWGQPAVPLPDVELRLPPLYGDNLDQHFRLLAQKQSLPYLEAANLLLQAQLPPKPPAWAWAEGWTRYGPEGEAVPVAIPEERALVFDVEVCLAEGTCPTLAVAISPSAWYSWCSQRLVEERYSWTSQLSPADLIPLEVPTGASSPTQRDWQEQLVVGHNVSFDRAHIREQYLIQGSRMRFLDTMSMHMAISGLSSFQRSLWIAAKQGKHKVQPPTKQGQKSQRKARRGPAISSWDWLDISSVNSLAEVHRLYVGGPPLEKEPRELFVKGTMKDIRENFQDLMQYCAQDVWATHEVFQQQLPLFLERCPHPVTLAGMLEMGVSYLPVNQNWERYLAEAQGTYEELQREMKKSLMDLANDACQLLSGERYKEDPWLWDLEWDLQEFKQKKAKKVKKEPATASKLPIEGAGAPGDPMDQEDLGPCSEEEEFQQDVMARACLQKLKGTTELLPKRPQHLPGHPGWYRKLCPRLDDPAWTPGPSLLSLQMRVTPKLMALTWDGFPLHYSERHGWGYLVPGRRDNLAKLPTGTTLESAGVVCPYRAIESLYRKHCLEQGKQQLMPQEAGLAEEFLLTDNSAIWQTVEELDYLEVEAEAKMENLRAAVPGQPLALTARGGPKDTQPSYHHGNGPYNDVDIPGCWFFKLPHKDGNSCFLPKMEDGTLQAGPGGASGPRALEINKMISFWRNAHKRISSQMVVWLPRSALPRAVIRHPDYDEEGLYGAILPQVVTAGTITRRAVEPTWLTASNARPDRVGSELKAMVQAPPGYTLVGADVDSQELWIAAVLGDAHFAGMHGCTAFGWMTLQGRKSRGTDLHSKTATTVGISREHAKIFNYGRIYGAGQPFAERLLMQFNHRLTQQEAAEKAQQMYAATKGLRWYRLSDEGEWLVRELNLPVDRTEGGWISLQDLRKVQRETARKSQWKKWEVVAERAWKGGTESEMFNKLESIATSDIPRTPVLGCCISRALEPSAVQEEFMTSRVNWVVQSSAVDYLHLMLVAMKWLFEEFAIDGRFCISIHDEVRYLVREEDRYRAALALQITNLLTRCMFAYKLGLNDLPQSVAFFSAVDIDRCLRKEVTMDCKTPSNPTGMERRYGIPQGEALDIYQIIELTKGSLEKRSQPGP
Sequence of ΔG-loop Polγ holoenzyme (Q9UHN1 26-485, stated change not applied, chain 2 of 2): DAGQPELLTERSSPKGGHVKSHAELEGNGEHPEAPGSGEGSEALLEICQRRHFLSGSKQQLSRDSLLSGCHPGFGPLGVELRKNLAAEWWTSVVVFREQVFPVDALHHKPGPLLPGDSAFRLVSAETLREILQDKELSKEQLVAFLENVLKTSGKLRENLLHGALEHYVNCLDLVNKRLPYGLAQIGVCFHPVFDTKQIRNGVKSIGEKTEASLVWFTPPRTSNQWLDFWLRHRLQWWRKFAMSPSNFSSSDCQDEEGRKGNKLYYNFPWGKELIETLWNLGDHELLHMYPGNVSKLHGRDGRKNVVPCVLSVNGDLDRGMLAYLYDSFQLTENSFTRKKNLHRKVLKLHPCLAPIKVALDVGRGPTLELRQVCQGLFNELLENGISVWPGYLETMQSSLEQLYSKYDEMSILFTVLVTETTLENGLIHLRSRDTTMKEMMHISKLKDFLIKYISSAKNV

B1: DNA24/DNA24TS (dsDNA)
DNA 1: GGTACAACTTGACGACATAGCGTG
DNA 2: CGGTCGAGTCACGACTCCGATTATCACGCTATGTCGTCAAGTTGTACC
B1: the binding result is reported as “binds”.
